B1: BAG family molecular chaperone regulator 5 (Rattus norvegicus (Rat)), Q5QJC9 (parent)
chain: MDMGNQHPSISRLQEIQREVKSIEQQVVGFSGLSDDKNYKRLERILTKQLFEIDSVDTEGKGDIQQARKRAAQDTERLLKELEQNANHPHRIEIKNIFQEAQALVKEKTVPFYSGSNCVTSEFEEAIQDIILRLTHVKTGGKISLRKARYHTLTKICAVQEIIEDCVRKQPSLPLSEDVHPSVAKINSVMCEVNKARGTLIALLMGVDSSETCRHLSCVLSGLMADLDALDVCGRTEIRNYRREVVEDINKLLKYLDLEEEADNTHAFDLGQNHSIIKIENVLKRMREMKNELLQAQSPPELYLRSKTELQGLIGQLDEVSLEKNPCIREARRRAVIEVQTLITYLDLKEALEKRKLFPCEETPPHKAVWNVLGNLSEIQGEVLSFGGNRTDKNYIRLEELLTKQLLTLDAVDPLGEEKCKAARKQAVKLAQNILSYLDMKSDEWEY

Variants of: B1
Conditions: with chip_human STUB1, Q9UNE7
chip_human STUB1, Q9UNE7, sequence (Q9UNE7 whole entry): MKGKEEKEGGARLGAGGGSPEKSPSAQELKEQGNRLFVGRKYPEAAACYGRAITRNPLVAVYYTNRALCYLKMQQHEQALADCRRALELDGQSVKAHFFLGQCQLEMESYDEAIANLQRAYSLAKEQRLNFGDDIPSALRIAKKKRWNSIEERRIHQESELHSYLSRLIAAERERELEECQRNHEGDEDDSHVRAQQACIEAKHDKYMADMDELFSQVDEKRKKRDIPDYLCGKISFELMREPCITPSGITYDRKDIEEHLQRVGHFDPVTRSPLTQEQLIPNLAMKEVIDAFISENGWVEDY

effect of a mutation on the interaction	Variant
disrupting interaction	MDMGNQHPSISRLQEIQREVKSIEQQVVGFSGLSDDKNYKRLERILTKQLFEIASVDTEGKGDIQQAAKRAAQDTERLLKELEQNANHPHRIEIKNIFQEAQALVKEKTVPFYSGSNCVTSEFEEAIQDIILRLTHVKTGGKISLRKARYHTLTKICAVQEIIEDCVRKQPSLPLSEDVHPSVAKINSVMCEVNKARGTLIALLMGVDSSETCRHLSCVLSGLMADLAALDVCGRTEIRNYAREVVEDINKLLKYLDLEEEADNTHAFDLGQNHSIIKIENVLKRMREMKNELLQAQSPPELYLRSKTELQGLIGQLAEVSLEKNPCIREAARRAVIEVQTLITYLDLKEALEKRKLFPCEETPPHKAVWNVLGNLSEIQGEVLSFGGNRTDKNYIRLEELLTKQLLTLAAVDPLGEEKCKAAAKQAVKLAQNILSYLDMKSDEWEY [D54A;R68A;D228A;R242A;D318A;R332A;D410A;R424A]
